11 sequences from the Immune Epitope Database (IEDB) can be followed below.

Assay [1] concerns the target HLA-B*27:20. In words: IEDB peptide-MHC binding, purified MHC/competitive/fluorescence; filed as Kd, often an IC50 or EC50 that approximates it; ≥ and ≤ were set here for values at or beyond the usual limits of such assays.
For assay [2], the target named is HLA-B*45:06. The assay is described as above.
In assay [3] the target is HLA-B*15:42. Described as above.
The target in assay [4] is HLA-B*83:01. The assay is described as above.
In assay [5] the target is HLA-C*06:02. Put plainly: IEDB peptide-MHC binding, purified MHC/direct/fluorescence; filed as Kd, often an IC50 or EC50 that approximates it; ≥ and ≤ were set here for values at or beyond the usual limits of such assays. Conditions: source organism: human gammaherpesvirus 4.
Assay [6] has as its target HLA-B*73:01. Put plainly: IEDB peptide-MHC binding, purified MHC/competitive/fluorescence; filed as Kd, often an IC50 or EC50 that approximates it; ≥ and ≤ were set here for values at or beyond the usual limits of such assays.
Assay [7] concerns the target HLA-B*51:01. Put plainly: IEDB peptide-MHC binding, purified MHC/competitive/fluorescence; ≥ and ≤ were set here for values at or beyond the usual limits of such assays. The conditions noted are these: source organism: Taeniopygia guttata.
The target of assay [8] is HLA-A*02:01. Described as above. Conditions: source organism: Taeniopygia guttata.
In assay [9] the target is HLA-B*15:02. In words: IEDB peptide-MHC binding, purified MHC/competitive/fluorescence; filed as Kd, often an IC50 or EC50 that approximates it; ≥ and ≤ were set here for values at or beyond the usual limits of such assays. Conditions: source organism: Vibrio vulnificus CMCP6.
Assay [10] concerns the target HLA-B*40:01. In words: IEDB peptide-MHC binding, purified MHC/direct/fluorescence; filed as Kd, often an IC50 or EC50 that approximates it; ≥ and ≤ were set here for values at or beyond the usual limits of such assays.
The target of assay [11] is HLA-B*48:01. The description is as above.
Assay [12] concerns the target HLA-B*46:01. The assay is described as above.
Assay [13] has as its target HLA-B*18:01. The description is as above.
Assay [14] concerns the target HLA-A*30:01. The description is as above. Conditions: source organism: Giardia lamblia ATCC 50803.
Assay [15] concerns the target HLA-A*69:01. The assay is described as above.
Assay [16] addresses HLA-A*01:01. Described as above.
Assay [17] addresses HLA-B*15:17. Described as above.
The target in assay [18] is HLA-A*03:01. The description is as above.
The target in assay [19] is HLA-A*11:01. The assay is described as above.
The target in assay [20] is HLA-B*57:01. The assay is described as above.
Assay [21] has as its target HLA-B*27:05. Described as above. Conditions: source organism: Giardia lamblia ATCC 50803.
In assay [22] the target is HLA-B*58:01. The description is as above.
In assay [23] the target is HLA-B*07:02. Described as above.
For assay [24], the target named is HLA-A*26:01. The assay is described as above. The conditions noted are these: source organism: Giardia lamblia ATCC 50803.
In assay [25] the target is HLA-B*08:01. The assay is described as above.
The target of assay [26] is HLA-B*51:01. Described as above. Conditions: source organism: Giardia lamblia ATCC 50803.
For assay [27], the target named is HLA-B*15:09. Described as above. Conditions: source organism: Giardia lamblia ATCC 50803.
Assay [28] addresses HLA-A*31:01. The description is as above.
The target of assay [29] is HLA-A*02:01. The description is as above.
For assay [30], the target named is HLA-B*15:01. Described as above.
Assay [31] addresses HLA-A*02:50. Put plainly: IEDB peptide-MHC binding, purified MHC/competitive/fluorescence; filed as Kd, often an IC50 or EC50 that approximates it; ≥ and ≤ were set here for values at or beyond the usual limits of such assays.
The target in assay [32] is HLA-A*02:19. In words: IEDB peptide-MHC binding, purified MHC/direct/fluorescence; filed as Kd, often an IC50 or EC50 that approximates it; ≥ and ≤ were set here for values at or beyond the usual limits of such assays. The conditions noted are these: source organism: Coxiella burnetii Q321.
In assay [33] the target is HLA-A*68:23. In words: IEDB peptide-MHC binding, purified MHC/competitive/fluorescence; filed as Kd, often an IC50 or EC50 that approximates it; ≥ and ≤ were set here for values at or beyond the usual limits of such assays. The conditions noted are these: source organism: Sudan ebolavirus.
The target of assay [34] is HLA-A*29:02. In words: IEDB peptide-MHC binding, purified MHC/direct/fluorescence; filed as Kd, often an IC50 or EC50 that approximates it; ≥ and ≤ were set here for values at or beyond the usual limits of such assays. Conditions: source organism: Sudan ebolavirus.
Assay [35] deals with HLA-A*26:03. In words: IEDB peptide-MHC binding, purified MHC/competitive/fluorescence; filed as Kd, often an IC50 or EC50 that approximates it; ≥ and ≤ were set here for values at or beyond the usual limits of such assays. The conditions noted are these: source organism: Vaccinia virus Copenhagen.
In assay [36] the target is HLA-A*02:03. The description is as above. Conditions: source organism: Vaccinia virus Copenhagen.
The target of assay [37] is HLA-A*02:01. The description is as above. The conditions noted are these: source organism: Vaccinia virus Copenhagen.
For assay [38], the target named is HLA-A*26:02. Put plainly: IEDB peptide-MHC binding, purified MHC/direct/fluorescence; filed as Kd, often an IC50 or EC50 that approximates it; ≥ and ≤ were set here for values at or beyond the usual limits of such assays. Conditions: source organism: Variola virus.
The target of assay [39] is HLA-A*68:02. Described as above. Conditions: source organism: Camelpox virus M-96.
Assay [40] concerns the target HLA-B*08:03. The assay is described as above. Conditions: source organism: Variola virus.
Setting [41] is: source organism: human gammaherpesvirus 4.
The mark [42] stands for this setting: source organism: Listeria monocytogenes HPB2262.
Setting [43] is: source organism: Mycobacterium tuberculosis H37Ra.
The mark [44] stands for this setting: source organism: Mycobacterium tuberculosis.
The mark [45] stands for this setting: source organism: Giardia lamblia ATCC 50803.
Where [46] appears, read: source organism: Coxiella burnetii.
Where [47] appears, read: source organism: Sudan ebolavirus.
Setting [48] is: source organism: Camelpox virus M-96.

Regarding RRYASQTEL, the dissociation constant Kd (commonly a measure of binding affinity in units of concentration) in [1] (setting [41]) was 0.0002 µM; in [2] (setting [41]), at least 5 µM; in [3] (setting [41]) it was at least 5 µM; in [4] (setting [41]) it was at least 5 µM; in assay [5], 0.021 µM.
As to FETMVFPAV, the equilibrium dissociation constant (Kd) in [6] (setting [42]), in assay [2] (setting [42]), in [3] (setting [42]) and in assay [4] (setting [42]) was at least 5 µM throughout.
Regarding FLLPILSQI, the IC50 (in general, the concentration needed to halve the response being measured) in assay [7] was at least 20 µM; in assay [8], 0.0526 µM.
With AMRVGSSIM, the Kd in [9] is 0.118 µM.
Turning to LEMQHLISL, the Kd was 1.11 µM in assay [1] (setting [43]), at least 5 µM in [2] (setting [43]), at least 5 µM in assay [3] (setting [43]) and 0.0137 µM in assay [10] (setting [44]).
As to KRPYVFVAA, the Kd in assay [6] (source organism: Yersinia enterocolitica subsp. enterocolitica 8081) is 0.0685 µM.
Consider RPALVVDTP, for which the Kd in assay [11] (setting [45]), in assay [12] (setting [45]), in [13] (setting [45]), in assay [14], in assay [15] (setting [45]) and in assay [16] (setting [45]) was at least 20 µM throughout. The equilibrium dissociation constant (Kd) in assay [17] (setting [45]), in [18] (setting [45]), in assay [19] (setting [45]), in assay [20] (setting [45]), in assay [21] and in [10] (setting [45]) was at least 20 µM throughout. The Kd in [22] (setting [45]), in assay [23] (setting [45]), in assay [24], in assay [25] (setting [45]), in [26] and in assay [27] was at least 20 µM in each case. For the same sequence, the equilibrium dissociation constant (Kd) in [28] (setting [45]), in assay [29] (setting [45]) and in assay [30] (setting [45]) was at least 20 µM throughout.
In the case of YQLGDYFFV, the Kd in [31] (source organism: Coxiella burnetii Dugway 5J108-111) is at most 0.0001 µM; in assay [15] (setting [46]), 0.0013 µM; in [32], 0.002 µM; in assay [29] (setting [46]), 0.0015 µM.
As to CTSSIQYHR, the Kd in [33] was 0.0038 µM; in [2] (setting [47]) it was at least 5 µM; in assay [3] (setting [47]), at least 5 µM; in [4] (setting [47]), at least 5 µM; in assay [34] it was 1.44 µM; in assay [16] (setting [47]) it was at least 20 µM.
As for LLYEVDGDV, the equilibrium dissociation constant (Kd) was 1.13 µM in [31] (source organism: Mycobacterium tuberculosis variant bovis BCG str. Pasteur 1173P2), at least 20 µM in [15] (setting [44]) and at least 20 µM in assay [29] (setting [44]).
As to GLYRLNFRR, the Kd was at least 20 µM in assay [35]; at least 20 µM in assay [36]; 0.966 µM in assay [37]; at least 20 µM in [11] (setting [48]); at least 20 µM in assay [12] (setting [48]); at least 20 µM in assay [13] (setting [48]). The dissociation constant Kd was at least 20 µM in [38]; at least 20 µM in assay [15] (setting [48]); at least 20 µM in assay [16] (setting [48]); at least 20 µM in assay [17] (setting [48]); 0.242 µM in [18] (setting [48]); 0.237 µM in assay [19] (setting [48]). Besides, the equilibrium dissociation constant (Kd) in assay [39], in [20] (setting [48]), in [40], in assay [10] (setting [48]), in assay [22] (setting [48]) and in assay [23] (setting [48]) was at least 20 µM each time. Further, the Kd is at least 20 µM in [25] (source organism: Variola virus), 0.0017 µM in assay [28] (setting [48]) and at least 20 µM in [30] (setting [48]).
